# Assay results from the supplement of paper PMC9732359.
# ± gives the uncertainty stated by the source.
# Test: protein stability index of a GFP-peptide fusion (yeast GPS) (PSI 1-4); higher = more stable; sorted into four equal gates, so the index is relative within each strain
# Procedure, shortened: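 Sequencing reads from sorted gates were used to score each peptide. The library consisted of tiled 17-residue yeast protein peptides fused downstream of GFP on a Cherry-expressing plasmid, pooled and carried in yeast. Mid-log cultures in leucine-free medium were split into four equal gates by GFP/Cherry ratio, and each gate's plasmids were PCR-amplified and Illumina-sequenced. The protein stability index adds up, over all gates, the read frequency multiplied by the gate number.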
Sequence,protein stability index (doa10∆),protein stability index (pdr5∆),protein stability index (san1∆),protein stability index (ubr1∆)
VKPLESSAKRSKNTAVS [SRP72],2.7 ± 0.073,2.92 ± 0.11,2.21 ± 0.096,2.63 ± 0.05
IPKPRTAGKTSVKSART [SNF2],3.38 ± 0.1,3.26 ± 0.069,2.89 ± 0.065,3.09 ± 0.048
DAMVTRTPVIISLRNNH [SMD2],1.61 ± 0.058,1.85 ± 0.056,1.43 ± 0.12,1.7 ± 0.073
IKKVICGAWEPAITIEK [SIR3],2.15 ± 0.094,2.45 ± 0.087,2.47 ± 0.1,2.58 ± 0.084
EEEMAPYYKYLCEEYLV [RPN7],2.12 ± 0.087,2.74 ± 0.11,2.5 ± 0.14,2.64 ± 0.093
LKPSMSVALHRHSNALV [RPT3],1.64 ± 0.11,2.41 ± 0.15,2.51 ± 0.15,2.53 ± 0.22
EEYVINLLKVSVDICNN [ECM29],2.15 ± 0.064,2.58 ± 0.063,2.7 ± 0.048,2.65 ± 0.053
ITKEVTQVNILKENNAI [YIL149C/MLP2],2.91 ± 0.057,3.14 ± 0.065,2.87 ± 0.085,3.17 ± 0.044
RENMICKIDFQKNFMDQ [RRI2],2.9 ± 0.13,2.96 ± 0.11,3.19 ± 0.067,3.24 ± 0.081
VGVENNGQYAAFVKDMQ [RPC37],3.21 ± 0.12,2.79 ± 0.15,3.19 ± 0.092,3.41 ± 0.1
SSKTSQPKPLFSFGKSD [YOR098C/NUP1],2.16 ± 0.043,2.4 ± 0.027,2.19 ± 0.047,2.16 ± 0.035
IGNLITRQFEGRSNEIV [PRP8],3.05 ± 0.075,3.29 ± 0.087,3 ± 0.058,2.7 ± 0.074
KQDKTLQKVENQTIKEA [YIL149C/MLP2],3.22 ± 0.072,3.15 ± 0.07,3.15 ± 0.071,3.17 ± 0.062
RLLPNGSNKAQISIIDI [YML031W/NDC1],2.91 ± 0.076,3.11 ± 0.067,2.6 ± 0.048,2.92 ± 0.035
NNIVSVLTAGVNSVAIK [RPN11],2.28 ± 0.075,2.26 ± 0.087,2.66 ± 0.078,1.97 ± 0.058
ILHGSKSQEQREHSLQL [PRP28],3.11 ± 0.1,2.69 ± 0.089,2.92 ± 0.067,2.35 ± 0.041
SFLKVDPDLGLDLMFDE [YJL039C/NUP192],3.3 ± 0.083,3.3 ± 0.09,3.04 ± 0.087,3.06 ± 0.091
NRYAFSQPTNSTTTSLH [SMC4],2.44 ± 0.079,2.33 ± 0.052,2.14 ± 0.11,2.26 ± 0.044
YLDQHKRTRLESLKNLN [SMC3],2.11 ± 0.097,2.23 ± 0.083,1.7 ± 0.098,2.58 ± 0.21
PPAYALLGSCQTDGMGL [RPC25],2.15 ± 0.11,2.57 ± 0.15,2.22 ± 0.19,2.41 ± 0.13
LSMRFQRETSGMIVISM [SRB8],2.13 ± 0.081,2.05 ± 0.062,1.54 ± 0.067,1.97 ± 0.058
ERPAIEFETPTFLVSND [RPN14],3 ± 0.063,3.14 ± 0.056,2.81 ± 0.06,2.9 ± 0.089
LLFFNFSHSLTTILSFS [NUT1],1.41 ± 0.046,1.41 ± 0.034,1.46 ± 0.059,1.37 ± 0.033
LSKINAIQLDYSTANEY [RPN3],3.13 ± 0.084,2.15 ± 0.066,3.17 ± 0.085,3.06 ± 0.062
LELGSCFSQENIEEMAR [SIN4],2.02 ± 0.06,2.21 ± 0.073,2.64 ± 0.078,2.64 ± 0.073
KALKTNINFASGVKNDI [CDC53],3.09 ± 0.089,3.22 ± 0.068,2.83 ± 0.095,3.04 ± 0.074
SREIAQPSSSRYNGGND [SMB1],3.19 ± 0.087,3.22 ± 0.071,3.22 ± 0.053,3.31 ± 0.055

Sequence,protein stability index (doa10∆),protein stability index (pdr5∆),protein stability index (san1∆),protein stability index (ubr1∆)
LRWFELKPKLYYEQFRP [SIR3],3.21 ± 0.074,2.98 ± 0.067,2.71 ± 0.077,3 ± 0.047
GCLVKREDLNKAEYVDQ [RPO31],,3.13 ± 0.21,,
IFTEKIYKSIFNVVDVG [YJL039C/NUP192],1.99 ± 0.07,1.71 ± 0.072,1.72 ± 0.14,1.33 ± 0.065
TPVVLATPIPEEVQQAQ [RPS5],2.55 ± 0.099,2.43 ± 0.16,3.1 ± 0.1,2.83 ± 0.13
TVPELEIPTQIYRTTRQ [ARP9],2.39 ± 0.076,2.8 ± 0.066,2.35 ± 0.08,2.83 ± 0.067
RWYQLIATGCKDGRIRI [YGL100W/SEH1],2.31 ± 0.065,2.26 ± 0.057,2.18 ± 0.078,2.43 ± 0.044
TSANGIVQFTYGGDGLD [RPO31],2.68 ± 0.093,2.77 ± 0.092,2.24 ± 0.15,3.04 ± 0.064
EKLINNSDDCMMEEIIN [ECM29],3.36 ± 0.11,3.1 ± 0.11,3.1 ± 0.066,3.13 ± 0.12
DQFQWILRKPGKDCKLQ [RRI2],2.62 ± 0.19,3.25 ± 0.17,3.26 ± 0.16,3.3 ± 0.16
GVILMFAAILVLLVLPF [COB],2.69 ± 0.062,1.34 ± 0.05,1.25 ± 0.065,1.14 ± 0.046
LFSSRRLQAKRLKDVEW [RMP1],2.62 ± 0.084,2.79 ± 0.059,3.1 ± 0.079,1.68 ± 0.065
RLGLIPLQSMDIEQLEY [RPB3],2.75 ± 0.067,2.92 ± 0.063,2.91 ± 0.088,2.72 ± 0.083
DMVMATVKKGKPELRKK [RPL23A],3.49 ± 0.15,3.35 ± 0.18,3.54 ± 0.1,3.22 ± 0.11
QTLYTGDKVVVTIWYRA [SSN3],1.22 ± 0.058,1.32 ± 0.069,1.25 ± 0.13,1.47 ± 0.047
VPVALKGQGPFTLTYDI [YMR129W/POM152],2.58 ± 0.096,2.95 ± 0.11,2.83 ± 0.069,2.8 ± 0.061
TPLQSQLNLNNLTPANI [PGD1],2.98 ± 0.064,3.11 ± 0.053,2.99 ± 0.039,3.01 ± 0.04
LLVGLIKTFYWLEQFLS [NUT1],2.24 ± 0.12,1.11 ± 0.076,1.34 ± 0.14,1.24 ± 0.074
QQPTASDNIASLQYINI [SMD1],3.27 ± 0.09,3.27 ± 0.098,3.13 ± 0.12,3.24 ± 0.078
LKESVEGEFNGDTIELA [PRE8],3.12 ± 0.092,3.48 ± 0.11,3.4 ± 0.072,3.2 ± 0.073
IDIINKLILHAIHIFES [YML103C/NUP188],1.5 ± 0.053,1.56 ± 0.058,1.42 ± 0.065,1.38 ± 0.034
RGDSTETSSFGSMFSGD [RRI1],3.5 ± 0.087,3.27 ± 0.16,3.35 ± 0.053,3.27 ± 0.15
DGTAKEVGDEADNTKDK [MED4],3.06 ± 0.11,3.18 ± 0.12,3.34 ± 0.088,3.22 ± 0.077
KNSSQLLNEWSHNVDEL [RPN5],2.75 ± 0.057,2.81 ± 0.05,2.9 ± 0.045,2.64 ± 0.049
AMTIYWDDHTKKPLSMA [CDC53],2.87 ± 0.077,2.67 ± 0.091,2.69 ± 0.048,2.85 ± 0.062
YTQQQALEYIGAKVKTM [RET1],1.97 ± 0.063,2.34 ± 0.072,2.25 ± 0.086,2.1 ± 0.059
SQLQPQPQPQPQQQQQH [YDL088C/ASM4],2.79 ± 0.087,2.95 ± 0.074,2.51 ± 0.13,2.88 ± 0.088
